Values joined by “and” are separate entries in the source; they are usually repeats but may differ in a detail not shown here. Equal values may be shown once.
Tested on: healthy Balb/c mice
Assay: Toxicity study, clinical chemistry
Assay type: in vivo, mouse
Conditions: 5, 11, 19, 30, 43 wk, mean±SD
Experimental: Five different experimental groups (10 male and 10 female healthy animals per group; n = 100) were included in the radiotoxicity study and treated as follows: control group 1: 3 × vehicle (PBS + kolliphor HS 15 (1 mg/mL)); control group 2: 3 × 1200 pmol [^175Lu]Lu-NeoB; treatment group 1: 3 × 40 MBq/400 pmol [^177Lu]Lu-NeoB; treatment group 2: 3 × 80 MBq/800 pmol [^177Lu]Lu-NeoB; and treatment group 3: 3 × 120 MBq/1200 pmol [^177Lu]Lu-NeoB.
Animals received 3 injections with an interval of 7 days between each injection.
In addition, the following clinical chemistry parameters were measured: sodium, potassium chloride, calcium, glucose, creatinine, urea, alanine aminotransferase (ALT), aspartate aminotransferase (AST), alkaline phosphatase (ALP), amylase, lipase, and cholesterol, using the Roche/Hitachi cobas c systems according to the standard protocol. To reach the volume necessary for measuring the clinical chemistry parameters, the blood plasma was diluted 3–5 times with demineralized water.

CC(C)CC(CC(C)C)NC(=O)[C@H](Cc1cnc[nH]1)NC(=O)CNC(=O)[C@@H](NC(=O)[C@H](C)NC(=O)[C@H](Cc1c[nH]c2ccccc12)NC(=O)[C@H](CCC(N)=O)NC(=O)[C@@H](Cc1ccccc1)NC(=O)COCC(=O)Nc1ccc(CNC(=O)CN2CCN(CC(=O)O)CCN(CC(=O)O)CCN(CC(=O)O)CC2)cc1)C(C)C [[^177Lu]Lu-NeoB, metal not drawn]
Alk. Phosphatase (female, treatment group 1): 104.70 ± 11.61 U/L and 85.71 ± 8.98 U/L and 68.75 ± 4.76 U/L and 75.00 ± 0.00 U/L and 86.67 ± 16.07 U/L
Urea (female, treatment group 1): 6.84 ± 1.27 mmol/L and 7.24 ± 1.10 mmol/L and 7.29 ± 1.04 mmol/L and 7.00 ± 1.78 mmol/L and 6.00 ± 0.00 mmol/L
Alk. Phosphatase (female, treatment group 2): 88.75 ± 7.50 U/L and 96.60 ± 11.73 U/L and 92.57 ± 8.90 U/L and 75.00 ± 8.16 U/L and 87.50 ± 8.66 U/L
Urea (female, treatment group 2): 8.13 ± 2.95 mmol/L and 9.48 ± 0.83 mmol/L and 7.41 ± 0.62 mmol/L and 6.64 ± 1.07 mmol/L and 7.50 ± 0.71 mmol/L
Alk. Phosphatase (female, treatment group 3): 96.00 ± 15.81 U/L and 93.00 ± 4.65 U/L and 81.43 ± 10.69 U/L and 90.00 ± 9.13 U/L and 110.00 ± 26.46 U/L
Urea (female, treatment group 3): 8.94 ± 1.32 mmol/L and 7.97 ± 1.26 mmol/L and 8.50 ± 1.80 mmol/L and 9.25 ± 2.40 mmol/L and 8.63 ± 2.56 mmol/L
Alk. Phosphatase (male, treatment group 1): 114.00 ± 8.28 U/L and 98.57 ± 4.04 U/L and 70.00 ± 0.00 U/L and 85.00 ± 10.00 U/L and 68.33 ± 20.82 U/L
Urea (male, treatment group 1): 7.44 ± 0.85 mmol/L and 6.60 ± 0.60 mmol/L and 7.00 ± 0.00 mmol/L and 7.50 ± 0.00 mmol/L
Alk. Phosphatase (male, treatment group 2): 75.00 ± 15.81 U/L and 112.40 ± 16.22 U/L and 96.86 ± 9.44 U/L and 85.00 ± 0.00 U/L and 80.00 ± 0.00 U/L
Urea (male, treatment group 2): 7.33 ± 1.26 mmol/L and 7.46 ± 1.14 mmol/L and 7.24 ± 1.41 mmol/L and 7.13 ± 0.85 mmol/L and 8.00 ± 1.35 mmol/L
Alk. Phosphatase (male, treatment group 3): 103.20 ± 13.73 U/L and 99.43 ± 5.59 U/L and 83.75 ± 7.50 U/L and 87.50 ± 8.66 U/L and 80.00 ± 17.80 U/L
Urea (male, treatment group 3): 7.59 ± 1.51 mmol/L and 6.77 ± 0.71 mmol/L and 7.25 ± 0.87 mmol/L and 6.50 ± 0.00 mmol/L and 6.75 ± 1.04 mmol/L

Reference: paper PMC9605926, “Safety of [^177Lu]Lu-NeoB treatment: a preclinical study characterizing absorbed dose and acute, early, and late organ toxicity” (European Journal of Nuclear Medicine and Molecular Imaging, 2022)
